From patent US20080014191A1
Each block holds one substance with its values, some of them ahead of it.

Legend:
[1] = biological target: ΔF508 CFTR (Homo sapiens (Human)) (UniProt P13569); assay: CFTR co-IP, MudPIT MS; BHK ΔF508
[2] = biological target: wild-type cystic fibrosis transmembrane conductance regulator (CFTR) (Homo sapiens (Human)) (UniProt P13569); assay: CFTR co-IP, MudPIT MS; BHK wt
[3] = biological target: ΔF508 CFTR (Homo sapiens (Human)) (UniProt P13569); assay: CFTR co-IP, MudPIT MS; ΔF508
[4] = biological target: wild-type cystic fibrosis transmembrane conductance regulator (CFTR) (Homo sapiens (Human)) (UniProt P13569); assay: CFTR co-IP, MudPIT MS; BHK wt, Calu-3, HT29, T84
[5] = biological target: wild-type cystic fibrosis transmembrane conductance regulator (CFTR) (Homo sapiens (Human)) (UniProt P13569); assay: CFTR co-IP, MudPIT MS; cell line not stated

Chain of wild-type cystic fibrosis transmembrane conductance regulator (CFTR) (Homo sapiens (Human)) (P13569 whole entry): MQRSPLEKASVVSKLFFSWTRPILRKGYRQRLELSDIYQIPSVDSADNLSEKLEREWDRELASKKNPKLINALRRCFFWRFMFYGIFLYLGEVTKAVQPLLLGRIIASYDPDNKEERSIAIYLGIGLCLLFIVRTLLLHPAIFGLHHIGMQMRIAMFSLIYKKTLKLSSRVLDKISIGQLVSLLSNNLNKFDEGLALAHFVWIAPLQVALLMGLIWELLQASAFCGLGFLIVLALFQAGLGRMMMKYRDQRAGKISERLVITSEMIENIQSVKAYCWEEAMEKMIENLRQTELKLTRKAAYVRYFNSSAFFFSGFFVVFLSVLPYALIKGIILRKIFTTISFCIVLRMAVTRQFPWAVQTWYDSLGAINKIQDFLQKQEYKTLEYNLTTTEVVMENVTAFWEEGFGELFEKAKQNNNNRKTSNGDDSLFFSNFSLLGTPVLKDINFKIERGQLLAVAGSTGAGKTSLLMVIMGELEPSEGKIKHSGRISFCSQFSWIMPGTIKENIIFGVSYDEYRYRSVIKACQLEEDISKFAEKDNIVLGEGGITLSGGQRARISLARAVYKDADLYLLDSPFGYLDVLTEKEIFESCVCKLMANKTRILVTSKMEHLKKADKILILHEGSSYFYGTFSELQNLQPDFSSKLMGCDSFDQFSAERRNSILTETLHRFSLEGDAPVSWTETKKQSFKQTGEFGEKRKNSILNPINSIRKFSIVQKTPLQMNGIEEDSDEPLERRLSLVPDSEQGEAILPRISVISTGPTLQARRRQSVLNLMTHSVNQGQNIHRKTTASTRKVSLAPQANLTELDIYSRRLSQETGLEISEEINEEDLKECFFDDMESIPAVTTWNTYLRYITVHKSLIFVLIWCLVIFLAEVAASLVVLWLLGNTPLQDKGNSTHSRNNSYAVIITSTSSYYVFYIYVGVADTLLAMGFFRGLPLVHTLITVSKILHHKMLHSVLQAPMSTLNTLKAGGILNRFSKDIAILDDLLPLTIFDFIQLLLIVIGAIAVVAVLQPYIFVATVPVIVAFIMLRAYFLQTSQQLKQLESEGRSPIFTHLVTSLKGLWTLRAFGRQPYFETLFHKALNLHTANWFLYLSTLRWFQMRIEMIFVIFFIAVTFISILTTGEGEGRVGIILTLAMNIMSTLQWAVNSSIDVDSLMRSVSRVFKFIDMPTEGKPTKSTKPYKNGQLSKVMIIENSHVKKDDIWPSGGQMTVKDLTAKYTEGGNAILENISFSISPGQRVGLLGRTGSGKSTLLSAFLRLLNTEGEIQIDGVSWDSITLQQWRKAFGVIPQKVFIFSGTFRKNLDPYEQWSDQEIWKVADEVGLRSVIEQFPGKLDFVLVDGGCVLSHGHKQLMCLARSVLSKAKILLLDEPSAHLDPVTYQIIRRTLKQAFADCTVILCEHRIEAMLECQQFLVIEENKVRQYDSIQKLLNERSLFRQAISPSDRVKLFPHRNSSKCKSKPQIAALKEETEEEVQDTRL
Chain of ΔF508 CFTR (Homo sapiens (Human)) (P13569 other isoform, or with tags, fused parts or gaps mutant limits assumed): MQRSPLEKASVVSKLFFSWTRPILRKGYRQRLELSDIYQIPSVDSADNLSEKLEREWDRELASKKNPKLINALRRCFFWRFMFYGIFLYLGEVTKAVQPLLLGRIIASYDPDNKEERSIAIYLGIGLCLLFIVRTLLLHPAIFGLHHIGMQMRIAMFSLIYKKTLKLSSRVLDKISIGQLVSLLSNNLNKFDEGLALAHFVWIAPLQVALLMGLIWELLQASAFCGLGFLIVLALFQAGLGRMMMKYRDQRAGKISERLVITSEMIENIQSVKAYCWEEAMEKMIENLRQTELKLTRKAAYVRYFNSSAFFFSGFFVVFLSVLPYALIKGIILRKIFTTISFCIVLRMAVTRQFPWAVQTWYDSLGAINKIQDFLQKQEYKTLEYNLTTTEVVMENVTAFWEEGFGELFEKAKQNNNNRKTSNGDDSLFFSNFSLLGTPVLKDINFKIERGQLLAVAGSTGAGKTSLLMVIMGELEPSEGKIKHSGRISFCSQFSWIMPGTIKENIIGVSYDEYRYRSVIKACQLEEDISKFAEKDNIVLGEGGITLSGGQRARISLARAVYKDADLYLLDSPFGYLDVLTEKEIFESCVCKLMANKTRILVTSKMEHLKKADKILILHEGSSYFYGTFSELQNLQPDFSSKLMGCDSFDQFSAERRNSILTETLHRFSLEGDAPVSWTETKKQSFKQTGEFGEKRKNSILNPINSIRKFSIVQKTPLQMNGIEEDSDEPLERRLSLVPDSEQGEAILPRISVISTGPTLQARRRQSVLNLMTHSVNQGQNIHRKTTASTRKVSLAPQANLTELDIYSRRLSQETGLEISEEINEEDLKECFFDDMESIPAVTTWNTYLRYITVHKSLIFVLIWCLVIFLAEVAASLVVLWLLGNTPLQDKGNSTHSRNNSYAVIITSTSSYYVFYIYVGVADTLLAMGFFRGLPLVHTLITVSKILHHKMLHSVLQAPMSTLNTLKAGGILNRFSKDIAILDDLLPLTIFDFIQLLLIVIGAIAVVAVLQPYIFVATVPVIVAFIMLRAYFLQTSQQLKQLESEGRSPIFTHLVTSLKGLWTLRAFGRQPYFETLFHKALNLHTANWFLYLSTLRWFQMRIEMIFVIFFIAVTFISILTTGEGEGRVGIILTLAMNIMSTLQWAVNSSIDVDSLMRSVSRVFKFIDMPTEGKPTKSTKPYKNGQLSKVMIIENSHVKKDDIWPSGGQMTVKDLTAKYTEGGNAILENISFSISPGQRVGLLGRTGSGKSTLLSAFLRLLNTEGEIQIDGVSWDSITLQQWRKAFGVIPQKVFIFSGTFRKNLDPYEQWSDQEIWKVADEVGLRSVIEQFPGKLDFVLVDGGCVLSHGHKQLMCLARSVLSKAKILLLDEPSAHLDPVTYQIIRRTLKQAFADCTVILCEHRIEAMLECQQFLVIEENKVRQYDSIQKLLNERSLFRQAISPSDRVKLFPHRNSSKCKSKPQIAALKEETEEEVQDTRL

Substance: Hsp70-2 (from UniProt P54652 1-639)
% sequence coverage [1]: 16%
total spectra [1]: 57 spectra
unique spectra [1]: 23 spectra
% sequence coverage [2]: 8%
total spectra [2]: 17 spectra
unique spectra [2]: 7 spectra

Substance: proteasome, beta type, 4 (from UniProt P28070 46-264)
% sequence coverage [3]: 16%
total peptide spectra [3]: 2 spectra
unique peptide spectra [3]: 2 spectra

Substance: Sec61 alpha subunit isoform 1 (from UniProt P61619 1-476)
% sequence coverage [4]: 11%
total peptide spectra [4]: 7 spectra
unique peptide spectra [4]: 4 spectra

Substance: ubiquitin protein ligase E3A (from UniProt Q05086 1-875) (enzyme)
% sequence coverage [4]: 6%
total peptide spectra [4]: 2 spectra
unique peptide spectra [4]: 2 spectra

Substance: FKBP38 (from UniProt O35465 1-402)
% sequence coverage [1]: 17%
total spectra [1]: 5 spectra
unique spectra [1]: 4 spectra

Substance: BAG-2 (from UniProt O95816 2-211)
% sequence coverage [1]: 28%
total spectra [1]: 20 spectra
unique spectra [1]: 7 spectra
% sequence coverage [2]: 10%
total spectra [2]: 2 spectra
unique spectra [2]: 2 spectra

Substance: proteasome 26S, non-ATPase, 11 (from UniProt O00231 2-422)
% sequence coverage [3]: 5%
total peptide spectra [3]: 2 spectra
unique peptide spectra [3]: 2 spectra

Substance: proteasome, beta type 1 (from UniProt O09061 28-240)
% sequence coverage [3]: 23%
total peptide spectra [3]: 3 spectra
unique peptide spectra [3]: 3 spectra

Substance: p23 (from UniProt Q15185 1-160)
% sequence coverage [1]: 16%
total spectra [1]: 2 spectra
unique spectra [1]: 2 spectra

Substance: Reticulocalbin (from UniProt Q05186 24-325)
% sequence coverage [1]: 27%
total spectra [1]: 8 spectra
unique spectra [1]: 5 spectra
% sequence coverage [2]: 50%
total spectra [2]: 19 spectra
unique spectra [2]: 14 spectra

Substance: sorting nexin 9 (from UniProt Q9Y5X1 1-595)
% sequence coverage [5]: 5%
total peptide spectra [5]: 2 spectra
unique peptide spectra [5]: 2 spectra

Substance: Aha1, activator of heat shock 90 kDa protein ATPase homolog 1 (from UniProt O95433 1-338)
% sequence coverage [1]: 15%
total spectra [1]: 15 spectra
unique spectra [1]: 7 spectra
% sequence coverage [2]: 34%
total spectra [2]: 20 spectra
unique spectra [2]: 10 spectra

Substance: Hsp40-A1 (Hdj2) (from UniProt P31689 1-394)
% sequence coverage [1]: 31%
total spectra [1]: 33 spectra
unique spectra [1]: 10 spectra
% sequence coverage [2]: 40%
total spectra [2]: 25 spectra
unique spectra [2]: 13 spectra

Substance: Hsp70-1A (from UniProt P0DMV8 2-641)
% sequence coverage [1]: 19%
total spectra [1]: 20 spectra
unique spectra [1]: 12 spectra
% sequence coverage [2]: 8%
total spectra [2]: 6 spectra
unique spectra [2]: 4 spectra

Next, values leading:

% sequence coverage [1]: 10%
total spectra [1]: 14 spectra
unique spectra [1]: 8 spectra
% sequence coverage [2]: 3%
total spectra [2]: 5 spectra
unique spectra [2]: 3 spectra
Substance: Hsp70B′ (from UniProt P17066 1-643)

% sequence coverage [5]: 16%
total peptide spectra [5]: 4 spectra
unique peptide spectra [5]: 2 spectra
Substance: ARF4 (from UniProt P61750 2-180)

% sequence coverage [1]: 10%
total spectra [1]: 6 spectra
unique spectra [1]: 5 spectra
Substance: Hsp105 (from UniProt Q61699 2-858)

% sequence coverage [4]: 11%
total peptide spectra [4]: 2 spectra
unique peptide spectra [4]: 2 spectra
Substance: Sec61, alpha subunit 2 (from UniProt Q9H9S3 1-476)

% sequence coverage [5]: 13%
total peptide spectra [5]: 11 spectra
unique peptide spectra [5]: 3 spectra
Substance: clathrin, light chain (from UniProt O08585 1-235)

% sequence coverage [5]: 9%
total peptide spectra [5]: 5 spectra
unique peptide spectra [5]: 4 spectra
Substance: enthoprotin (from UniProt Q14677 1-625)

% sequence coverage [5]: 5%
total peptide spectra [5]: 3 spectra
unique peptide spectra [5]: 3 spectra
Substance: disabled homolog 2 (Dab2) (from UniProt P98078 2-766)

% sequence coverage [3]: 24%
total peptide spectra [3]: 3 spectra
unique peptide spectra [3]: 3 spectra
Substance: proteasome, beta type, 3 (from UniProt P49720 2-205)

% sequence coverage [1]: 40%
total spectra [1]: 85 spectra
unique spectra [1]: 30 spectra
% sequence coverage [2]: 33%
total spectra [2]: 37 spectra
unique spectra [2]: 17 spectra
Substance: GRP78 (from UniProt P20029 20-655)

% sequence coverage [3]: 12%
total peptide spectra [3]: 3 spectra
unique peptide spectra [3]: 2 spectra
Substance: proteasome 26S, ATPase, 4 (from UniProt P43686 1-418)

% sequence coverage [3]: 8%
total peptide spectra [3]: 3 spectra
unique peptide spectra [3]: 2 spectra
Substance: proteasome 26S, ATPase 3 (from UniProt O88685 1-442)

% sequence coverage [1]: 34%
total spectra [1]: 35 spectra
unique spectra [1]: 11 spectra
Substance: DnaJ-like protein (from UniProt P63036 1-394)
